# Source: PMC3527552
# B1: OATP1B1: N134/503/516Q (protein)
# parent chain: MDQNQHLNKTAEAQPSENKKTRYCNGLKMFLAALSLSFIAKTLGAIIMKSSIIHIERRFEISSSLVGFIDGSFEIGNLLVIVFVSYFGSKLHRPKLIGIGCFIMGIGGVLTALPHFFMGYYRYSKETNINSSENSTSTLSTCLINQILSLNRASPEIVGKGCLKESGSYMWIYVFMGNMLRGIGETPIVPLGLSYIDDFAKEGHSSLYLGILNAIAMIGPIIGFTLGSLFSKMYVDIGYVDLSTIRITPTDSRWVGAWWLNFLVSGLFSIISSIPFFFLPQTPNKPQKERKASLSLHVLETNDEKDQTANLTNQGKNITKNVTGFFQSFKSILTNPLYVMFVLLTLLQVSSYIGAFTYVFKYVEQQYGQPSSKANILLGVITIPIFASGMFLGGYIIKKFKLNTVGIAKFSCFTAVMSLSFYLLYFFILCENKSVAGLTMTYDGNNPVTSHRDVPLSYCNSDCNCDESQWEPVCGNNGITYISPCLAGCKSSSGNKKPIVFYNCSCLEVTGLQNRNYSAHLGECPRDDACTRKFYFFVAIQVLNLFFSALGGTSHVMLIVKIVQPELKSLALGFHSMVIRALGGILAPIYFGALIDTTCIKWSTNNCGTRGSCRTYNSTSFSRVYLGLSSMLRVSSLVLYIILIYAMKKKYQEKDINASENGSVMDEANLESLNKNKHFVPSAGADSETHC
# B2: OATP1B1: N134/617Q (protein)
# parent chain: B1 parent chain
# B3: OATP1B1: tunicamycin 0.5 μg/ml, 42 h (protein)
# parent chain: B1 parent chain
# B4: OATP1B1: N134Q (protein)
# parent chain: B1 parent chain
# B5: OATP1B1: N134/516Q (protein)
# parent chain: B1 parent chain
# B6: OATP1B1: N134/503Q (protein)
# parent chain: B1 parent chain
# B7: OATP1B1: N516Q (protein)
# parent chain: B1 parent chain
# B8: OATP1B1: N134/432Q (protein)
# parent chain: B1 parent chain
# B9: OATP1B1: N503Q (protein)
# parent chain: B1 parent chain
# Tests used:
# [1] = cell surface biotinylation, anti-HA Western blot; conditions: glycan lost; control: wild type
# [2] = total cell lysate anti-HA Western blot; conditions: glycan lost; control: wild type
# [3] = confocal immunofluorescence, colocalisation with calnexin; conditions: glycan lost; control: wild type
# [4] = 0.1 μM E-3-S uptake, 2 min, HEK293; conditions: glycan lost; control: wild type
# [5] = cell lysate anti-HA Western blot; conditions: glycan lost; control: untreated
Protein,"expression_or_secretion, percent_of_wt [1]",expression_or_secretion [2],localisation_or_trafficking [3],other: transport activity [4],expression_or_secretion [5]
B1,decreases,decreases,changes,,
B2,no change,,,no change,
B3,,,,,decreases
B4,no change,,,no change,
B5,no change,,,no change,
B6,no change,,,no change,
B7,no change,,,no change,
B8,no change,,,no change,
B9,no change,,,no change,
